Laboratory results as given in publication PMC8986478 (Immunity, 2022).

B1: C1520 IgG (antibody, V domains shown)
VH: EVQLVESGGGLVQPGGSLRLACVASGFTFSIYEMNWVRQAPGKGLEWVSYITTSGHARYNADSVKGRFTISRDNSKNSFYLQMNSLRAEDTAIYYCARPQYHYYDTSTYHSYGFDIWGQGTMVTVSS
VL: QLVLTQSPSASASLGASVNLTCTLSSGHNSYAIAWHQQQPEKGPRYLMSLNSDGSHTKGDGIPDRFSGSSSGAERFLTISSLQSEDEADYYCQTWDTGIRVFGGGTRLTVL
B2: C1717 IgG (antibody, V domains shown)
VH: QVQLVQSGAEVKKPGSSVKVSCKTSGGTFNSFAINWVRQAPGQGPEWMGRVIPVLEIANYAQKFQGRITITADKSTSTAYMELSSLTSEDTAIYYCARHHIAVAQPYFDYWGQGTLVTVSS
VL: not shown
B3: C1791 IgG (antibody, V domains shown)
VH: EVQLLESGGGLVQPGGSRRLSCAASGFTFSIAAMSWVRQAPGKGLEWVSVISTSGGTSYYADSVRGRFTISRDNSQNTLYLQMNSLSAEDTAIYYCAKDLGSYFPDYWGQGTLVTVSS
VL: DIQMTQSPSSLSASVGDRVTITCRASQGIRNDIGWYQQKPGKAPKRLIHAASSLQSGVPSRFSGSGSGTEFTLTISSLQPEDFATYYCLQYNSYPRVTFGPGTKVDIK
B4: C1704 IgG (antibody, V domains shown)
VH: QVQLVQSGAEVKKPGASVKVSCKVSGYTLTELSIHWVRQAPGKGLEWMGSFDPEDGETICAQKFQGRVTMTEDTSTDTAYMELSSLRSEDTAVYYCATEWRGCSDTSCQGTNWFDPWGQGTLVTVSS
VL: QPVLTQSPSASASLGASVKLTCTLSSGHSTYAIAWHQQQPEKGPRYLMKLNSDGSHNKGDGIPDRFSGSSSGAERYLTISSLQSEDEADYYCQTWGTGVRVFGGGTKLTVL
B5: C1557 IgG (antibody, V domains shown)
VH: QVQLVQSGAEVRKPGASVKVSCKVSGYTLTELSMHWVRQSPGKGLEWMGSFDPDDGETFYAQKFQGRITMSEDTSTDTAYMELSSLRSEDTAVYFCATDSNMIVVRGNYYYSGLDVWGQGTTVTVSS
VL: EIVMTQSPATLSVSPGERATLSCRASQSVAGNLAWYQQKPGLAPRLLIQGPSTRATGIPARFSGSGSGTEFTLTISSLQSEDFAVYYCHQYNNWPWTFGQGTKVEIK
B6: C1621 IgG (antibody, V domains shown)
VH: EVQLVESGGGLVKPGGSLRLSCAASGFSFNNSNMNWVRQAPGKGLEWVSSISSSSNYIYYVDSVKGRFTISRDNAKNSLYLQMSSLRVEDTAVYYCASAQSSARWGGYYQYAMDVWGQGTTVTVSS
VL: EIVMTQSPATLSVSPGERATLSCRASQSVSSSLAWYQQKPGQAPRLLIYDASTRATGIPARFSGRGSGTEFTLTISSLQSEDFAVYYCQQYYNWPPWTFGQGTKVEI
B7: C1554 IgG (antibody, V domains shown)
VH: QVQLVQSGAEVKKPGASVKVSCKVSGYTLPEISIHWVREAPGKGLEWMGGFDPEDGETIYSQRFQGRVTMTEDTSTDTAYMELSSLRSEDTAVYYCAASSPFSGGWFHPWGQGTLVTVSS
VL: QSALTQPASVSGSPGQSITISCTETSSDVGNYNLVSWYQQHPGKAPKLVIYEGTKRPSGVSNRFSASKSGNTASLTISELQAEDEANYYCCSYARSGVFGGGTKLTVL

These binders were tested against SARS-CoV-2 Wuhan-Hu-1 NTD (SARS-CoV-2 Wuhan-Hu-1, UniProt P0DTC2) (assay: BLI).
B1: binds.
B2: binds.
B3: binds.
B4: binds.
B5: binds.
B6: binds.
B7: binds.
